Experimental data published in patent US7947876B2 (Nippon Paper Industries Co., Ltd., priority 2004, dated 2011).
Ends that are not written are not given here.

System: mouse islet
Experiment: Thermal stability, activity measured by cAMP generation using mouse islet
Type: cell-based
Conditions: 15 min at 100° C.; for stability for thermal treatment (activity by cAMP generation): 10 μg/ml in 0.2% BSA solution, versus non-thermal treated control
Procedure: Further, trypsin treatment was performed, and a monomer GLP-1 derivative was obtained. […] To these thermal treated substances, non-thermal treated substances were prepared similarly as a control. Then, with respect to these substances, the activity was measured by cAMP generation using mouse islet. […] On the other hand, as the synthetic peptide was heat-stable, the 5 linked peptide expressed in rice was estimated to have changed by thermal denaturation to a tertiary structure which would not be easily digested by trypsin.

Substance	activity lower than that of non-thermally treated (cAMP generation) (rice in distilled water, then extraction and trypsin treatment, FIG. 8)	stability for thermal treatment (activity by cAMP generation)
[Ser^8,Gln^26, Asn^34]-GLP-1 (HDEFERHSEGTFTSDVSSYLEGQAAQEFIAWLVNGRG; Glucagon-like peptide 1; UniProt P01275 92-128, looked up, variant A8S K26Q K34N)	about 33%	
[Ser^8,Gln^26, Asn^34]-GLP-1 (HSEGTFTSDVSSYLEGQAAQEFIAWLVNGR; ends and bridges not checked) [synthetic GLP-1 derivative]		stable
synthetic native GLP-1: native GLP-1 obtained by synthesis [reference compound]		stable
